Target: T1, mouse-LEPR (Mus musculus, UniProt P48356)
T1 construct: introducing DNA plasmids encoding full-length LEPR of different species and STAT3-luciferase reporter gene into HEK293 cells; expressed in transfected cells; host or cells: HEK293 (HEK293-STAT3Luc-msLepR9)
T1 sequence (P48356 22-1162): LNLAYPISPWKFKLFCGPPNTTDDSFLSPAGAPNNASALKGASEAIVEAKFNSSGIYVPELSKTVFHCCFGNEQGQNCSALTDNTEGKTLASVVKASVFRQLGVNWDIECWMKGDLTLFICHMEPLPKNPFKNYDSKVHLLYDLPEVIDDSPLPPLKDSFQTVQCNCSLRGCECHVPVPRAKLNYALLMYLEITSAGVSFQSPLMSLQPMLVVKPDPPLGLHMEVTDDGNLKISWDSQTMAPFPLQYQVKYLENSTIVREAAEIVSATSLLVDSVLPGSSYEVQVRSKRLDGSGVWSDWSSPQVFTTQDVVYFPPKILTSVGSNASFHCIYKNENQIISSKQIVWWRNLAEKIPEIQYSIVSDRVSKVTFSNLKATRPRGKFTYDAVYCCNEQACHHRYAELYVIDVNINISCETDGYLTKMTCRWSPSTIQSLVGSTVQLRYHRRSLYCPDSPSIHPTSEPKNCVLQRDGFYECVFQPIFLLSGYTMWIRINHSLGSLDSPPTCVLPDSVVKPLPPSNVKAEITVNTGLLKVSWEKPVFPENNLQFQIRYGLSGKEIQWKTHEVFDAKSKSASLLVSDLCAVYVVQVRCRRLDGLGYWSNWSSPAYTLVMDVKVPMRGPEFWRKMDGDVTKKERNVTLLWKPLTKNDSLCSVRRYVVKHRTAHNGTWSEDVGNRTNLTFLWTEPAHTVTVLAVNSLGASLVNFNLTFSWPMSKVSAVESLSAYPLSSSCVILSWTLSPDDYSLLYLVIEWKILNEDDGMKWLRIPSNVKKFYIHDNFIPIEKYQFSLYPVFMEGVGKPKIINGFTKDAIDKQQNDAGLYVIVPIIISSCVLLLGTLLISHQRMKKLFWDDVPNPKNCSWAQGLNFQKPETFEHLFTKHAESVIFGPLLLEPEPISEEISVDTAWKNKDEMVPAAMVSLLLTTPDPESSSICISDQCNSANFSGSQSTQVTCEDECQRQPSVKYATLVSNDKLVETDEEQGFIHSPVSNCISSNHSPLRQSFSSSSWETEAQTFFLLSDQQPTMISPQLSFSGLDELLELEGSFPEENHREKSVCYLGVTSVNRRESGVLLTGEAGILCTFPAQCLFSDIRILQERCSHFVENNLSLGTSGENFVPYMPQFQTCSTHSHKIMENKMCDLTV
Assay: STAT3-luciferase reporter assay in HEK293-STAT3Luc-msLepR9 cells
Format: cell-based
Description: LEPR is a cell surface single-pass transmembrane receptor. Activation of LEPR leads to phosphorylation of intracellular STAT3 (pSTAT3) and subsequent target gene transcription. To measure LEPR activation by anti-LEPR antibodies in the present disclosure, five independent STAT-luciferase reporter cell lines were established by introducing DNA plasmids encoding full-length LEPR of different species and STAT3-luciferase reporter gene into HEK293 cells (Table 4). […]
Before plating the cells for luciferase assays, the poly-D-Lysine coated 96-well plates (Corning Inc, #354651) were rinsed once with phosphate buffered solution (PBS). […] Cell lysing and One-Glo luciferase substrate solution (Promega, #E6120) were then added to each well, and relative luciferase units (RLUs) were measured on a ClarioStar plate reader. For each reporter cell line, positive control LEPR activation was calculated as the average RLUs stimulated by 20 nM recombinant human leptin protein (SEQ ID NO:27) minus the average RLUs of unstimulated cells and was set as maximum LEPR activation (100%). […]

EC50 (antibodies at concentrations up to 90 nM, read-out: EC50 (nM) ± SEM): 0.0788 ± 0.017 nM
Agonism (%) ± SEM (vs 20 nM recombinant human leptin, antibodies up to 90 nM): 116.17%
Substance: human leptin: recombinant human leptin protein (SEQ ID NO:27), positive control
